The target in series [1] is GST-Yap8-7aa A23T;L26N;S29A;N31R;K35E;L37E;E39R (Saccharomyces cerevisiae) (UniProt Q06596). Briefly: fluorescence anisotropy. The settings on record: FA: 10 mM Tris-HCl pH 8, 50 mM NaCl, 0.5% NP-40, 1 mM DTT, 5% glycerol, 1 nM DNA, 25C (half volume protein elution buffer). Biotin EMSA: LightShift 1x buffer ….
Series [2] addresses GST-Yap8-8aa N20Q;A23T;L26N;S29A;N31R;K35E;L37E;E39R (Saccharomyces cerevisiae) (UniProt Q06596). Nature of the series: fluorescence anisotropy. The conditions noted are these: FA: 10 mM Tris-HCl pH 8, 50 mM NaCl, 0.5% NP-40, 1 mM DTT, 5% glycerol, 1 nM DNA, 25C (half volume protein elution buffer). Biotin EMSA: LightShift 1x buffer …. For orientation: Fluorescence polarisation rises when a labelled molecule tumbles more slowly, as on binding a larger partner.

The target of series [3] is T1, GST-Yap8-4aa (Saccharomyces cerevisiae, UniProt Q06596 1-294, A23T;L26N;S29A;N31R).
T1 sequence: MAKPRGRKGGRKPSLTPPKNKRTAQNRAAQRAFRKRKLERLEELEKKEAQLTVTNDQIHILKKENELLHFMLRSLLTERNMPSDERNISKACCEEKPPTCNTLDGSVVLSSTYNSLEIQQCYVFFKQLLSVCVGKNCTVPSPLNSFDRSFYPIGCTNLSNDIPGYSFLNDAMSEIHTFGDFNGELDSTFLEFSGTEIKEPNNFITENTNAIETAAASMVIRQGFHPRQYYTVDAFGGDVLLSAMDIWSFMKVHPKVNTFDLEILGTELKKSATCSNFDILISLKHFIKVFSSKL
Nature of the series: EMSA; FA: 10 mM Tris-HCl pH 8, 50 mM NaCl, 0.5% NP-40, 1 mM DTT, 5% glycerol, 1 nM DNA, 25C (half volume protein elution buffer). Biotin EMSA: LightShift 1x buffer, 50 ng poly(dI-dC), 2.5% glycerol, 0.05% NP-40, 5 mM MgCl2, 20 fmol probe, RT 20 min. 32P EMSA: 10 mM Tris-HCl pH 8.0, 50 mM NaCl, 1 mM DTT, 0.05% NP-40, 100 ng poly(dI-dC), 6% glycerol, 4C 30 min. The settings on record: protein: recombinant, tags: GST (N-term), chain copies: 2, blunt. On the technique in general: Mobility shift assays separate free from complexed probe on a gel.

Series [4] addresses T2, GST-Yap8-N20A (Saccharomyces cerevisiae, UniProt Q06596 1-294, N20A).
T2 sequence: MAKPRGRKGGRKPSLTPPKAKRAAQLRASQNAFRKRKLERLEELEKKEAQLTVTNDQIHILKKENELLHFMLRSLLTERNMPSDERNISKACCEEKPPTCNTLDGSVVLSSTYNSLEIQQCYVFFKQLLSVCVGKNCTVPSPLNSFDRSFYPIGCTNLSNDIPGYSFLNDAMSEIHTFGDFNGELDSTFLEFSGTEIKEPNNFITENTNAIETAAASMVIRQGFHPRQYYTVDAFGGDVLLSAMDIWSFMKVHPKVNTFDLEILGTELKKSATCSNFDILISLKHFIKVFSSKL
Described as above. The settings on record: protein: recombinant; tags: GST (N-term); chain copies: 2; label: 32P 5'; blunt.

Series [5] deals with T3, GST-Yap8 WT (Saccharomyces cerevisiae, UniProt Q06596 1-294).
T3 sequence: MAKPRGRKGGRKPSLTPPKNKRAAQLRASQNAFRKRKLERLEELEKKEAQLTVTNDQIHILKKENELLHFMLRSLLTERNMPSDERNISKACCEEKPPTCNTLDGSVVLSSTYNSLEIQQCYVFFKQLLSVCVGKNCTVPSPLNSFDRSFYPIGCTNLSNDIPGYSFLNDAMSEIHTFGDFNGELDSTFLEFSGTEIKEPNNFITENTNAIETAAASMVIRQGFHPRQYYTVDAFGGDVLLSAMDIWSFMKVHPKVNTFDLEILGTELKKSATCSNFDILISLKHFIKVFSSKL
Described as above. The settings on record: protein: recombinant; tags: GST (N-term); chain copies: 2; label: 32P 5'; blunt.

Series [6] concerns the target T4, GST-Yap8-N20Q (Saccharomyces cerevisiae, UniProt Q06596 1-294, N20Q).
T4 sequence: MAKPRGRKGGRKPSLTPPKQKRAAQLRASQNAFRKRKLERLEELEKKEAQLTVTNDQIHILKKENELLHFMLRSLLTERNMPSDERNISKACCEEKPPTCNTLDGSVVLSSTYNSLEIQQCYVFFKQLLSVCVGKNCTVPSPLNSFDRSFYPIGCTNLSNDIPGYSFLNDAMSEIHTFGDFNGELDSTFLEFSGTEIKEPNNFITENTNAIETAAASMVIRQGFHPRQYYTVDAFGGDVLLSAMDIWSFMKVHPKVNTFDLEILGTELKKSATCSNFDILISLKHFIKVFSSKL
The series is described as above. The conditions noted are these: protein: recombinant; tags: GST (N-term); chain copies: 2; label: 32P 5'; blunt.

For series [7], the target named is T3, GST-Yap8 WT. Briefly: fluorescence anisotropy; series c; FA: 10 mM Tris-HCl pH 8, 50 mM NaCl, 0.5% NP-40, 1 mM DTT, 5% glycerol, 1 nM DNA, 25C (half volume protein elution buffer). Biotin EMSA: LightShift 1x buffer, 50 ng poly(dI-dC), 2.5% glycerol, 0.05% NP-40, 5 mM MgCl2, 20 fmol probe, RT 20 min. 32P EMSA: 10 mM Tris-HCl pH 8.0, 50 mM NaCl, 1 mM DTT, 0.05% NP-40, 100 ng poly(dI-dC), 6% glycerol, 4C 30 min. The conditions noted are these: protein: recombinant; tags: GST (N-term); chain copies: 2; label: 5' FAM; blunt.

For series [8], the target named is T5, GST-Yap8-G10A (Saccharomyces cerevisiae, UniProt Q06596 1-294, G10A).
T5 sequence: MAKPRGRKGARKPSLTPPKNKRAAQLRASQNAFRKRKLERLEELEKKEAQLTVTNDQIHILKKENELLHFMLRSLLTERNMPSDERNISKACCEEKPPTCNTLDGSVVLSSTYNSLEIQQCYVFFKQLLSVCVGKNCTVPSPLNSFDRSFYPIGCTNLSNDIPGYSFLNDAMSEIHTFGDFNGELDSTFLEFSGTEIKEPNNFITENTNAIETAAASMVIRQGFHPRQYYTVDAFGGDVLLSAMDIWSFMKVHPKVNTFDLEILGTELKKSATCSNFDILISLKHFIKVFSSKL
Nature of the series: EMSA; FA: 10 mM Tris-HCl pH 8, 50 mM NaCl, 0.5% NP-40, 1 mM DTT, 5% glycerol, 1 nM DNA, 25C (half volume protein elution buffer). Biotin EMSA: LightShift 1x buffer, 50 ng poly(dI-dC), 2.5% glycerol, 0.05% NP-40, 5 mM MgCl2, 20 fmol probe, RT 20 min. 32P EMSA: 10 mM Tris-HCl pH 8.0, 50 mM NaCl, 1 mM DTT, 0.05% NP-40, 100 ng poly(dI-dC), 6% glycerol, 4C 30 min. The conditions noted are these: protein: recombinant; tags: GST (N-term); chain copies: 2; blunt.

Series [9] has as its target T6, GST-Yap8-R7K,R11K (Saccharomyces cerevisiae, UniProt Q06596 1-294, R7K;R11K).
T6 sequence: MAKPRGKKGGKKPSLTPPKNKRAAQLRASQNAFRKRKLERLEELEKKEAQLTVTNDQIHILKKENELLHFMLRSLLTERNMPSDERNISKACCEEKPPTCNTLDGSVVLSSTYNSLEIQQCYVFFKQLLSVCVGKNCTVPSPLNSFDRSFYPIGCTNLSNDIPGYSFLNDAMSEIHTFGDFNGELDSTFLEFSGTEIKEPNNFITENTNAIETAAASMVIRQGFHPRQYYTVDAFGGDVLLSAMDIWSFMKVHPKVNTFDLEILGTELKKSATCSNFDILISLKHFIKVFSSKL
The description is as above. The settings on record: protein: recombinant; tags: GST (N-term); chain copies: 2; blunt.

Series [10] addresses T7, GST-Yap8-R11K (Saccharomyces cerevisiae, UniProt Q06596 1-294, R11K).
T7 sequence: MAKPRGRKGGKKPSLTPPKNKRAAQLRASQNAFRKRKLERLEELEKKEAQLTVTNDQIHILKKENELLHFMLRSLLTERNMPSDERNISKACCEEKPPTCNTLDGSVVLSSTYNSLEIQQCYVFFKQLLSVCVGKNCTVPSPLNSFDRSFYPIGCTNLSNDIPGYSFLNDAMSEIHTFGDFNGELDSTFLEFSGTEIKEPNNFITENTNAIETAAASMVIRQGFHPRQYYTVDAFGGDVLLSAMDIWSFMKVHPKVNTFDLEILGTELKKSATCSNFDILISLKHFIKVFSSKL
The description is as above. The conditions noted are these: protein: recombinant; tags: GST (N-term); chain copies: 2; blunt.

For orientation: Kd means the constant that tells how readily two partners part at equilibrium. For “CTTTTTGTTTGATTAATAATCAACTTTAGCG (double strand) [ACR3-WT (FAM)]”, the Kd amounted to 9.3 nM in series [1] and 15.1 nM in series [2].

B1: TRX2short (dsDNA)
DNA 1: ATTGTTTATACTCTTAGTAAAGGATGCTCCCTACAAGGTGGCTCTTTTCTTACTAAGCGCGTTCAGTTTC
DNA 2: GAAACTGAACGCGCTTAGTAAGAAAAGAGCCACCTTGTAGGGAGCATCCTTTACTAAGAGTATAAACAAT
In the case of B1, in series [3] (label: 32P 5'), the binding result was “no binding”.

B2: GSH1short (dsDNA)
DNA 1: TTCTGCCCAACGACGGCTGCCATTAGTCAGCATGGCGCGCACGTGACTACA
DNA 2: TGTAGTCACGTGCGCGCCATGCTGACTAATGGCAGCCGTCGTTGGGCAGAA
For B2, the binding result in [4], in series [5] and in series [6] was “no binding” in each case.

B3: ACR3-M3 (FAM) (dsDNA)
DNA 1: CTTTGCGGCTGATTAATAATCAACCGGAGCG
DNA 2: CGCTCCGGTTGATTATTAATCAGCCGCAAAG
With B3, the Kd in series [7] is 19.4 ± 4.1 nM.

B4: ACR3short (WT) (dsDNA)
DNA 1: TCTTAATTATCTTTTTGTTTGATTAATAATCAACTTTAGCGGCAACGCTCC
DNA 2: GGAGCGTTGCCGCTAAAGTTGATTATTAATCAAACAAAAAGATAATTAAGA
In the case of B4, the binding result is “binds” in [3], “no binding” in series [8], “no binding” in series [9] and “no binding” in series [10].

For the origin of these results see PMC7261193, “The ancillary N-terminal region of the yeast AP-1 transcription factor Yap8 contributes to its DNA binding specificity”.
